Experimental findings from the supplement of paper PMC9170038 are described below.

The series concerns MS2 coat protein. As to the kind of experiment: apparent KD of MS2 coat protein; designed switch direction (-1 OFF switch, 1 ON switch): -1; higher = weaker reporter binding. Put shortly:
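Transcription of designed RNA switches on Illumina chips was done by stalled E. coli RNA polymerase. SNAP-549-labelled MS2 coat protein was then titrated in doubling steps from 0.7 or 1.5 nM to 3 µM, with steps of 0.8–1.5 h at the lowest and 10–20 min at the highest concentration. The per-design median over clusters of curve-fitted normalised fluorescence is reported as apparent KD.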

Where [1] appears, read: input ligand: microRNA oligo, concentration not stated.
[2] abbreviates: Eterna round: R95, input ligand: microRNA oligo, concentration not stated.
Setting [3] is: Eterna round: R95, input ligand: FMN 200 uM.
The mark [4] stands for this setting: Eterna round: R95, input ligand: none.

In the case of “AUCCAGCUAGGAUAUGCAGAGGCGAUCGCGGGCAUGUCCCAACAUGAGGAUCACCCAUGUAGAAGGAGCCAAGG [Eternabot (Original) Solution 48] (Eterna round: R97, puzzle: Exclusion 2)”, the “apparent KD of MS2 coat protein” value is, setting by setting: (input ligand: FMN 200 uM) 76.1 nM; (input ligand: none) 33.2 nM.
For “AUCCCGCGAGGAUAUACAUGAGGAUCACCCAUGUAGGUUCUGGAUGGGCGAAAUUUGUGUAGAAGGCGCACCAA [Tibeaqu] (Eterna round: R96, puzzle: Exclusion 3)”, the “apparent KD of MS2 coat protein” value was 38.4 nM (input ligand: FMN 200 uM), 42.6 nM under setting [1] and 52 nM (input ligand: none).
In the same order, the values of “AUCCGACAUGAGGAUCACCCAUGUCAGGAUAUGGACUGACAUCGAAAGGAUGGAAGAACCAGAAGGGACUGGGC [Betiqu] (Eterna round: R96, puzzle: Exclusion 1)” are 71.7 nM, 17.1 nM and 20.1 nM.
For “AUCGUGCAGCUUUGCUGUACGAGUACAUGAGGAUCACCCAUGUAGGAUAUGGUACGCUUUGCGUGCUAGAAGGAUAUGAGAUUA [EX ENG3 1.48] (Eterna round: R96, puzzle: Exclusion NG 3)”, in that order: 40.2 nM, 28.5 nM and 31 nM.
With “AUCUUGUCAGGAUAUCUGACAAGUGACUUCGGUCACAGUUCAGAGAAGGUACAUGAGGAUCACCCAUGUAGAAC [Ex4-3: 39] (puzzle: Exclusion 4)”, the “apparent KD of MS2 coat protein” value under setting [2] was determined as 17.9 nM.
As to “AUGAACAAUGUAGGAUAUGCGUGGCGAAGCUAUGCAGAAGGACAUGAGGAUCACCCAUGUUCAAGCGUCUGCGUACAGAUGCUA [JL eng1 1.35 mod 7] (Eterna round: R96, puzzle: Exclusion NG 1)”, the “apparent KD of MS2 coat protein” value stood at 26.9 nM (input ligand: FMN 200 uM), 10.3 nM under setting [1] and 13.8 nM (input ligand: none).
In the case of “AUGAGGGUAAGAAGGUGAAGAUAGAGCGUACCUUAUGGAACAUGAGGAUCACCCAUGUAGCUUUUUGCUCGUCUUAU [JR_SV3TOV2_Sub032] (puzzle: Sensor v3, turn-off variant 2)”, the “apparent KD of MS2 coat protein” value is, setting by setting: under setting [3], 36.1 nM; under setting [2], 84 nM; under setting [4], 35.6 nM.
Take “AUGCCACAUGAGGAUCACCCAUGUGAGGAUAUGCUAGUAUUCCUAACGGCCGAUGCAGGCAGAAGGCGCUCGGG [Eternabot (L1) Solution 73] (Eterna round: R97, puzzle: Exclusion 1)”: the “apparent KD of MS2 coat protein” value (input ligand: FMN 200 uM) was found to be 19.5 nM and the “apparent KD of MS2 coat protein” value (input ligand: none) stood at 24.5 nM.
With “AUGCCCUGAGGAUAUCUCAUCCCGCACAUGAGGAUCACCCAUGUUCUUCUCUGGGUUUCGAGAGAAGGCAGGCCUA [Armus3] (Eterna round: R97, puzzle: Exclusion 5)”, the “apparent KD of MS2 coat protein” value worked out at 53.6 nM (input ligand: FMN 200 uM) and 118 nM (input ligand: none).
Consider “AUGCUCCGUGUAGGAUAUCGCCGUAUUACUCGGCGAGAAGGACAUGAGGAUCACCCAUGUAUGUUAUUAUCACGUGUGGCGCGC [Design 46] (Eterna round: R96, puzzle: Exclusion NG 1)”, for which the “apparent KD of MS2 coat protein” value (input ligand: FMN 200 uM) amounted to 35.2 nM, the “apparent KD of MS2 coat protein” value under setting [1] came to 15.4 nM and the “apparent KD of MS2 coat protein” value (input ligand: none) stood at 18.6 nM.
Turning to “AUGGACGCAGGAUAUACAUGAGGAUCACCCAUGUGAGGUUGGUAAGUAGGAAGUGAAGGUAGAAGGGCGAGAGA [JR_Exclu3_Sub097] (puzzle: Exclusion 3)”, the “apparent KD of MS2 coat protein” value reads like this: under setting [3], 107 nM; under setting [2], 74.8 nM; under setting [4], 84.3 nM.
For “AUGGACGCAGGAUAUACAUGAGGAUCACCCAUGUUAGGGUUGUGAGUAGGAAGGGAAGGUAGAAGGGCGAGAGU [JR_Exclu3_Sub099] (puzzle: Exclusion 3)”, the “apparent KD of MS2 coat protein” value under setting [2] was found to be 86.9 nM.
The same measure, in the same setting: then “AUGGUACAUGAGGAUCACCCAUGUUAGGAUAUCGCGUGUUCUAAAACUAAGAGAUACACGAGAAGGGACGACAU (puzzle: Exclusion 1)”, with 81.2 nM.
As for “AUGUGCACGCUGCGAUCCUACAUGAGGAUCACCCAUGUGGUCUGGUGGCGUGGGUCACCGGACUUGGCUCGUCUUGG [salish99_S_TOV1_R5_075] (Eterna round: R97, puzzle: Sensor, turn-off variant 1)”, the “apparent KD of MS2 coat protein” value reads like this: (input ligand: FMN 200 uM) 139 nM; (input ligand: none) 170 nM.
In the same order, the values of “AUGUGCACGCUGCGGUCCUACAUGAGGAUCACCCAUGUGGUCUGGUGGCGUGGGUCGCCGGACUUGGCUCGUCUUGU [salish99_S_TOV1_R5_030] (Eterna round: R97, puzzle: Sensor, turn-off variant 1)” are 18.6 nM and 18.7 nM.
In the case of “AUGUUACUCUGAGGAUAUUGUUUAUUCUUCUCACAUGAGGAUCACCCAUGUUUCCGUGUUUACCGCAAGAAGGCAGUUUUGUUU [JR_ExcNG2_Sub028] (Eterna round: R96, puzzle: Exclusion NG 2)”, the “apparent KD of MS2 coat protein” value turned out to be 41.1 nM (input ligand: FMN 200 uM), 29 nM under setting [1] and 31.8 nM (input ligand: none).
For “AUUAAAACGGCAGGAUAUCAGCGACAUGAGGAUCACCCAUGUUAGGGCUGACCCUGGAGUCUGGCUGAGAAGGGCCGACUCUCA [Riququ] (Eterna round: R96, puzzle: Exclusion NG 2)”, in that order: 192 nM, 33.2 nM and 59.9 nM.
In the same order, the values of “AUUAAUGUCAAAGGAUAUCAGCACGUGUAGUGCUGAGAAGGUUGAACAUGAGGAUCACCCAUGUAGAUCAUUAAUAAUUUAAUU [ENG1/10-B3] (Eterna round: R96, puzzle: Exclusion NG 1)” are 25.5 nM, 14.5 nM and 20.6 nM.
As for “AUUAUGUUAGGAUAUGCUUAUGGUGGAUAGUCCAGUAUGAUGUAGAAGGGACAUGAGGAUCACCCAUGUGCUGA [EX4 #34] (Eterna round: R97, puzzle: Exclusion 4)”, the “apparent KD of MS2 coat protein” value stood at 46.9 nM (input ligand: FMN 200 uM) and 41.9 nM (input ligand: none).
Take “AUUCAACAUGAGGAUCACCCAUGUGAGGAUAUGCGAGUAUAGACUUCGGUCUGAUAGAGCAGAAGGCGCAGAUA [EX1 #6] (Eterna round: R97, puzzle: Exclusion 1)”: the “apparent KD of MS2 coat protein” value (input ligand: FMN 200 uM) is 48.7 nM and the “apparent KD of MS2 coat protein” value (input ligand: none) is 32.8 nM.
As for “AUUCCCACCCGAGGAUAUGCUUUAUUGCCGGGUGGUCAACAUGAGGAUCACCCAUGUAACUAAACGCAGAAGGCGGACAAUAAG [Ediner] (Eterna round: R96, puzzle: Exclusion NG 2)”, the “apparent KD of MS2 coat protein” value is 33.5 nM (input ligand: FMN 200 uM), 116 nM under setting [1] and 33.8 nM (input ligand: none).
Turning to “AUUGUAGUUGUGAGGAUAUCGUAGAUUUAUUGAAACGAGAAGGCACAUGAGGAUCACCCAUGUAAGUUGUAGGU [JR_BMOE4_Sub054] (puzzle: Brourd's mod of Exclusion 4)”, under setting [2], the “apparent KD of MS2 coat protein” value was 54 nM.
Consider “AUUGUUUGAUACCUCUAAUACAUGAGGAUCACCCAUGUUAUCGAGGAUAUGCAGAAGAGAGGAGAGCAGAAGGCGAAGUAAGAG [JR_ExcNG3_Sub027] (Eterna round: R96, puzzle: Exclusion NG 3)”, for which the “apparent KD of MS2 coat protein” value (input ligand: FMN 200 uM) turned out to be 21.5 nM, the “apparent KD of MS2 coat protein” value under setting [1] amounted to 15.9 nM and the “apparent KD of MS2 coat protein” value (input ligand: none) was 19.6 nM.
